According to patent publication US20260232759A1 (WISCONSIN ALUMNI RESEARCH FOUNDATION, published 2026):
No end group written: not given here. PEG‑cholesterol = not defined here

Target: SARS-CoV-2 Spike protein (SARS-CoV-2, UniProt P0DTC2 14-1273)
Experiment: cell-based or functional assay

B1: D1 Q4 D32 E35 (peptide)
peptide: DISQINASVVNIEYEIKKLEEVAKKLEESLIDLQELGSGSGC(PEG‑cholesterol)
modifications: not fully specified (C-terminus); reading uncertain; also: β2- or β3-amino acids, presumably D1, Q4, D32, E35
  inhibition of S-mediated cell-cell fusion (β-Gal complementation), IC50: ~50 nM

B2: D1 Q4 D32 Q34 (peptide)
peptide: DISQINASVVNIEYEIKKLEEVAKKLEESLIDLQELGSGSGC(PEG‑cholesterol)
modifications: not fully specified (C-terminus); reading uncertain; also: β2- or β3-amino acids, presumably D1, Q4, D32, Q34
  inhibition of S-mediated cell-cell fusion (β-Gal complementation), IC50: ~10 nM
